US20070243582A1

Target: human IgG (Sigma) (human)
Test: ELISA: SPA′ coated at 5 µg/mL, human IgG 25 µg/mL, detection with HRP-labeled protein L, absorbance at 405 nm

Q: Which human IgG-binding activity per unit mass, relative to protein A manufactured by Repligen does the source give for “SPA′ (part of protein A of Staphylococcus aureus Cowan I strain (JCM2179) except for the signal sequence (S domain) and the cell wall-binding domain (X domain)), produced by Brevibacillus choshinensis HPD31-OK having Spa′-pNK3260 (from UniProt P38507 37-327)” here?
A: Its human IgG-binding activity per unit mass, relative to protein A manufactured by Repligen is 97%.
